Results reported in patent EP0528271A1.

Target: human PTH receptor on mouse cranial bone-derived osteoblast-like cell strain MC3T3-EI (mouse cell strain (receptor given as 'human PTH receptor')) (UniProt P41593)
Test: cell-based or functional assay

UniProt P41593, sequence (P41593 27-591): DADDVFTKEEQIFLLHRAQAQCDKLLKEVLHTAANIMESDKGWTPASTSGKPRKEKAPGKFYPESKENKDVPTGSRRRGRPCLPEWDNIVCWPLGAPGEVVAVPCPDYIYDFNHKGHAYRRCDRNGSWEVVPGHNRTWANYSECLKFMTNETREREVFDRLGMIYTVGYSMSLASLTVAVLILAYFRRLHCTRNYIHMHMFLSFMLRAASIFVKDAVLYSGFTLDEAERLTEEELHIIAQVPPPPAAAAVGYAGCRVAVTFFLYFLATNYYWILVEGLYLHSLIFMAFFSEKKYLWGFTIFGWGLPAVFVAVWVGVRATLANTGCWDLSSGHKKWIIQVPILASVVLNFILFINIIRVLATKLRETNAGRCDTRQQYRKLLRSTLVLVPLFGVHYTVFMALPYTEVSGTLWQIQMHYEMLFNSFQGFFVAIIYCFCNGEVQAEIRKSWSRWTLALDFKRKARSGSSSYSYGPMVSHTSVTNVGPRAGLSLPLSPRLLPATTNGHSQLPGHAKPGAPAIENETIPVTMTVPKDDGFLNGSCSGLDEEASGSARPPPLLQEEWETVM

| Substance | Specific Activity (cAMP production in MC3T3-EI cells) (relative to natural type human PTH) |
| --- | --- |
| [Cys³⁵] human PTH (1-84) (ligand) | 0.6 |
| Human PTH (1-84) (ligand) | 1 |
| [Leu⁸] human PTH (1-84) (ligand) | 1 |

Other lines, results leading:

| Specific Activity (cAMP production in MC3T3-EI cells) (relative to natural type human PTH) | Substance |
| --- | --- |
| 0.2 | [Leu⁸] human PTH (second row with this label in the specific activity table; identity uncertain) (ligand) |
| 0.3 | [Leu^8,18] human PTH (1-84) (ligand) |
